“Also recorded” adds a separate entry of the source.
Experiments:
[1] = biological target: T1, LRP-1 on isolated brain capillaries (Mus musculus, UniProt Q91ZX7); test: Brain capillary uptake (in vitro clearance of 125I-Aβ by isolated brain capillaries); type: cell-based; conditions: for lower affinity (Ki) for LRP-mediated clearance on brain capillaries than Aβ1-40: 125I-Aβ1-40 as test-ligand, unlabeled peptide 40 nM
T1 construct: from tissue; host or cells: isolated brain capillaries of wild-type and RAP null mice
T1 sequence (Q91ZX7 20-4545): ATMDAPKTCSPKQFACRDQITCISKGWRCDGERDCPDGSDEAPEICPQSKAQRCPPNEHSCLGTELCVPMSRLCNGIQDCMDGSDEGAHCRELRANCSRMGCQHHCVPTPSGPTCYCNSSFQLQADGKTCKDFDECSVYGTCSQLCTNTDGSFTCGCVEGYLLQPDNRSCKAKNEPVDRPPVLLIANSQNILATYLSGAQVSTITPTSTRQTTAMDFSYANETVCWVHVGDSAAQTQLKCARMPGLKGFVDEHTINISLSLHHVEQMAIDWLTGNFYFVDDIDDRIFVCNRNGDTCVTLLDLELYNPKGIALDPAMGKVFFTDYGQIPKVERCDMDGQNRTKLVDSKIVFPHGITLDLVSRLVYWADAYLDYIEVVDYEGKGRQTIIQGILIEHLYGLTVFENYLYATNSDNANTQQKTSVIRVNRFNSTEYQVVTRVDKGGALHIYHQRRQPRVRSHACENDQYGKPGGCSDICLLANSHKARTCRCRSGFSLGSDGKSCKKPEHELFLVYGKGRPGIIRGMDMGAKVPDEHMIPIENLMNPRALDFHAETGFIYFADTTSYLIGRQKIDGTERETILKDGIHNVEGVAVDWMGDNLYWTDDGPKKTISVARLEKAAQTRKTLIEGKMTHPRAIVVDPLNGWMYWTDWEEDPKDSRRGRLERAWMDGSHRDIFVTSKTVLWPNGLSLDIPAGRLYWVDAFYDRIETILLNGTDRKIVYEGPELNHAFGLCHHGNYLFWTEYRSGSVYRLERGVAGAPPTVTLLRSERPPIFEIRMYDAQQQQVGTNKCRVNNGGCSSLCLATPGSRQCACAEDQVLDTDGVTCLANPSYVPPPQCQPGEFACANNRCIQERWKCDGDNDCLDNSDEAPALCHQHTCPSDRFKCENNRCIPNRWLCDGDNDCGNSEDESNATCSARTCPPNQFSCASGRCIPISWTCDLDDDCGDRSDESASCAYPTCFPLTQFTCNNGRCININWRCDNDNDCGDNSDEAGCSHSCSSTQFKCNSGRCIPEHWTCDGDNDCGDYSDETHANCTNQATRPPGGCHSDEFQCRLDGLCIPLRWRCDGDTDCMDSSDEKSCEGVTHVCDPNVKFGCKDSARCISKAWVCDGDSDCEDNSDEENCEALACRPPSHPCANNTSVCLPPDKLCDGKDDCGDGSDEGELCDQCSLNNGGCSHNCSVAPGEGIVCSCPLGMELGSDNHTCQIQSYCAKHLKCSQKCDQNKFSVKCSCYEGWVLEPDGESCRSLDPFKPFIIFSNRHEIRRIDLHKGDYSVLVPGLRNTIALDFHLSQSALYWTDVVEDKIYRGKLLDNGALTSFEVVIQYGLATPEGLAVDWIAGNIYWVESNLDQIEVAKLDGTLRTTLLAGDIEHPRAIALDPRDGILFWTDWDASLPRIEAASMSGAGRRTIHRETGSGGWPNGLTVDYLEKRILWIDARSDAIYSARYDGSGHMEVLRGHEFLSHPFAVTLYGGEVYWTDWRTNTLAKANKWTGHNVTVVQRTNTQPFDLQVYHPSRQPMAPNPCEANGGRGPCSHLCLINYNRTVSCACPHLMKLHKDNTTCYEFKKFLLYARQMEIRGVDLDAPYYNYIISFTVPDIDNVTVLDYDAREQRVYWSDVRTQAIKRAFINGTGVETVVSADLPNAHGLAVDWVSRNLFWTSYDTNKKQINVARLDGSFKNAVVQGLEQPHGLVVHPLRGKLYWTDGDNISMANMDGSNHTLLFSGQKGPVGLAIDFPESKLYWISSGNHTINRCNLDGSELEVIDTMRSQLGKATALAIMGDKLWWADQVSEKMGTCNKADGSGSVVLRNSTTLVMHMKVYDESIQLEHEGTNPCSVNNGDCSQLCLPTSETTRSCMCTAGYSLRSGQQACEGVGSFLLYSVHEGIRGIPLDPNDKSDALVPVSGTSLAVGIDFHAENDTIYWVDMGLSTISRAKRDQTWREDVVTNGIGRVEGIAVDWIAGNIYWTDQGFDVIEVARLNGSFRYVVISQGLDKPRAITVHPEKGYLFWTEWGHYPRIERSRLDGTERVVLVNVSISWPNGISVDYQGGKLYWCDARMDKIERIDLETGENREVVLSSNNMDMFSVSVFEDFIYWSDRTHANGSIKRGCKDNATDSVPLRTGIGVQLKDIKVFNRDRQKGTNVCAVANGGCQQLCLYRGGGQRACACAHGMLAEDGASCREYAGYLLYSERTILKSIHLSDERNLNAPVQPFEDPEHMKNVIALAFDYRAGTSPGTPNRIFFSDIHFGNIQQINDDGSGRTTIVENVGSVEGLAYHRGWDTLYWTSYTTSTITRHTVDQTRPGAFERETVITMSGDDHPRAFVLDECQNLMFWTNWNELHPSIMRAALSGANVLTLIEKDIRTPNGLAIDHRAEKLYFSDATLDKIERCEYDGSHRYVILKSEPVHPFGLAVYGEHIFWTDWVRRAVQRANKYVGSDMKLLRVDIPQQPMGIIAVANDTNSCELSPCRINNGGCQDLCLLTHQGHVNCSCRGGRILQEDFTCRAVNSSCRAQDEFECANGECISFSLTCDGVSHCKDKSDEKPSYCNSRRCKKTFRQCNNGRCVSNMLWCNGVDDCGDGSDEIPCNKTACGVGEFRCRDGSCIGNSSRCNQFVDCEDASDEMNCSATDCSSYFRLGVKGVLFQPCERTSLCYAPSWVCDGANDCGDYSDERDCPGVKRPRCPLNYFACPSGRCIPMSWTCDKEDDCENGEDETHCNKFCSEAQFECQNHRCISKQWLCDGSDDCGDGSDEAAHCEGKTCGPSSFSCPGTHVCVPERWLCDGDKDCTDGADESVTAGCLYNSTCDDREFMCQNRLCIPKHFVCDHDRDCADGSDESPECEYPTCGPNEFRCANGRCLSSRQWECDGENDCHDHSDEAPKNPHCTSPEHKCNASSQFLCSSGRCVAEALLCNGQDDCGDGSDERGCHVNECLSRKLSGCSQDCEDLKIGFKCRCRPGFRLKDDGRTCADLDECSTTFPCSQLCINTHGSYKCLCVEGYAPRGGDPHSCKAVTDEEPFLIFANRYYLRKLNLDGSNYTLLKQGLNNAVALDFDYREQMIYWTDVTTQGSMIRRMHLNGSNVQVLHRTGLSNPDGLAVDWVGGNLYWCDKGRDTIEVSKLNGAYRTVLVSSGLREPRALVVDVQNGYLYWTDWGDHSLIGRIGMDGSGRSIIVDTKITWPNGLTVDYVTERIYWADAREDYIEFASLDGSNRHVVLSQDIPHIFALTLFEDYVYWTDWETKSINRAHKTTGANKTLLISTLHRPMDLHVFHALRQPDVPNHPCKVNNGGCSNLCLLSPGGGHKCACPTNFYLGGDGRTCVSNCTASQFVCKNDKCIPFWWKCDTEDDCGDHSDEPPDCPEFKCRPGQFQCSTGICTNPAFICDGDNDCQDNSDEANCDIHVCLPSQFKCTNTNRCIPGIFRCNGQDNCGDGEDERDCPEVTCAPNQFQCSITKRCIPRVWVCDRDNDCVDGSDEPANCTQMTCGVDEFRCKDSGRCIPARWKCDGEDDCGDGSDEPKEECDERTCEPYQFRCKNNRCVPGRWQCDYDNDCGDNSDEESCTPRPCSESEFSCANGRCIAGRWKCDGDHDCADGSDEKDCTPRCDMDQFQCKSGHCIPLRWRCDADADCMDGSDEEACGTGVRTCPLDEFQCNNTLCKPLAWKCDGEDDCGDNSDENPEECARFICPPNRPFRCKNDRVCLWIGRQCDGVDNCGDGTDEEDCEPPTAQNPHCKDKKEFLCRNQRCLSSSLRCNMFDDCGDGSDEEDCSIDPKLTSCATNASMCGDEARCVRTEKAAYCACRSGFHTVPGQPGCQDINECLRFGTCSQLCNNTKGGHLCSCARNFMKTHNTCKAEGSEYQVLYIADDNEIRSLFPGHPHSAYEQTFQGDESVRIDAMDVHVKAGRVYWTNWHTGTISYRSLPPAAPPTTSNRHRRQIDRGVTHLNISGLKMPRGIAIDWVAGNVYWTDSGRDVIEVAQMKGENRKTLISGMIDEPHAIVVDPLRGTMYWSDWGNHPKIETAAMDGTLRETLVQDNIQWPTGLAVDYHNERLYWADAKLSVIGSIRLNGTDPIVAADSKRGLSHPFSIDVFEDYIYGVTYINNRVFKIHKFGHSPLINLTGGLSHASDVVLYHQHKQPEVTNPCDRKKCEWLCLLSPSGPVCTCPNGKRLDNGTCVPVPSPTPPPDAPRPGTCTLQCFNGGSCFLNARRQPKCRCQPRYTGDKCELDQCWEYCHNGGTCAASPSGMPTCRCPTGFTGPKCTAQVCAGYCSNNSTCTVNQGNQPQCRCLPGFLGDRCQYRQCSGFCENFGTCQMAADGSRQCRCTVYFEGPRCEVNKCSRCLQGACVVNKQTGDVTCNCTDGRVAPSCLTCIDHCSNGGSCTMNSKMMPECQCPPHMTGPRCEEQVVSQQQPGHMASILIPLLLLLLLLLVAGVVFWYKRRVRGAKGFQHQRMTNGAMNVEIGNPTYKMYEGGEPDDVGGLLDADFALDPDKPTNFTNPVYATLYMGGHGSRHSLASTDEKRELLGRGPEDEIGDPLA

[2] = biological target: T2, LRP-1 cluster II (Homo sapiens, UniProt Q07954); test: Surface plasmon resonance binding of Aβ peptides to immobilized LRP-1 cluster II; conditions: RAP 500 nM
T2 construct: cluster II (i.e., Arg786 to Leu1165 as numbered in Herz et al., 1988); made in house; host or cells: stably transfected baby hamster kidney (BHK) cells
T2 sequence (Q07954 786-1165): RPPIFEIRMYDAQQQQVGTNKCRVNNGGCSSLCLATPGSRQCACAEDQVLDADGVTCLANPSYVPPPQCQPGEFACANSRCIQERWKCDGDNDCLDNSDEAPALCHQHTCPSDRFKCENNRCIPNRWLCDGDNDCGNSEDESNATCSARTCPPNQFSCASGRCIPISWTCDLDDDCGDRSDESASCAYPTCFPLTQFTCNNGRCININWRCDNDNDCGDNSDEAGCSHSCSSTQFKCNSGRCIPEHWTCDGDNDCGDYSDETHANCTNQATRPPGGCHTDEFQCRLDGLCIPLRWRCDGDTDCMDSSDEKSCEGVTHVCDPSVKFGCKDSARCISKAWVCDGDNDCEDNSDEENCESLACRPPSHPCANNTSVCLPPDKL
Method: (§1) RAP was used at 500 nM. Ligand solution was replaced with buffer to initiate dissociation. […] Apparent affinity constants Kd(app) were inferred from the ratio koff(app)/kon(app). Data are based on three to five measurements using six to nine different concentrations for each measurement. Data are presented as the mean±SEM. Analysis was performed using BIACORE X biosensor system (Uppsala, Sweden) and BIA evaluation 3.0 software (Biocore, Sweden).

[3] = biological target: T3, LRP-1 cluster IV (Homo sapiens, UniProt Q07954); test: Surface plasmon resonance binding of Aβ peptides to immobilized LRP-1 cluster IV; conditions: RAP 500 nM
T3 construct: cluster IV (i.e., His3313 to Leu3759 as numbered in Herz et al., 1988); made in house; host or cells: stably transfected baby hamster kidney (BHK) cells
T3 sequence (Q07954 3313-3759): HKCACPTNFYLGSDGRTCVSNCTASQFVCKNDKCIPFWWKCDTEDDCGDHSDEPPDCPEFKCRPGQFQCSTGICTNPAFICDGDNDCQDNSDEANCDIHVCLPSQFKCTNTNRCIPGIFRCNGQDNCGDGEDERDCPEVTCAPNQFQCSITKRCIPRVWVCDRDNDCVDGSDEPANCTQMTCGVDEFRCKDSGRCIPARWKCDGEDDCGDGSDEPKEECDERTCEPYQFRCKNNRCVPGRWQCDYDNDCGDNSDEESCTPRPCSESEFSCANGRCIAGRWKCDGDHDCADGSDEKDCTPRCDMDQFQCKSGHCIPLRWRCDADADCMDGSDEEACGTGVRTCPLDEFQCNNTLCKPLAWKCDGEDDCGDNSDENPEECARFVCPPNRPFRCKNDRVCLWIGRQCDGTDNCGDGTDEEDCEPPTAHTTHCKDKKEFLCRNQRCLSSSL
Method: as §1

[4] = biological target: T4, LRP-1 at the blood-brain barrier (Mus musculus, UniProt Q91ZX7); test: Brain clearance studies: efflux of 125I-Aβ from brain ISF across the blood-brain barrier; type: in vivo; conditions: RAP 1 μM, αLRP-1 60 μg/ml, NI IgG 60 μg/ml, 30 min
T4 construct: from tissue; host or cells: living mouse brain (C57BL/6, RAP null and littermate controls), microinjection into brain ISF
T4 sequence (Q91ZX7 20-4545): as the sequence (Q91ZX7 20-4545) above

lower affinity (Ki) for LRP-mediated clearance on brain capillaries than Aβ1-40 [1] [fold]	Binding of Aβ peptides to LRP-1 cluster II in the presence of RAP [2]	Binding of Aβ peptides to LRP-1 cluster IV in the presence of RAP [3]	effect on 125I-Aβ1-40 uptake before (total) and after mild acid wash ([1]; RAP 500 nM, 37° C.)	effect on Aβ elimination from brain [4]	Substance	effect on Aβ1-40 brain capillary uptake ([1]; Aβ1-40 at 120 nM, RAP 1 μM, αLRP-1 60 μg/ml, NI IgG 60 μg/ml)
6	–	–	–	–	Dutch Aβ1-40: Dutch (E22Q) mutant Aβ1-40 peptide	–
–	abolished	abolished	blocked	almost completely abolished	RAP: human recombinant receptor-associated protein, an LRP-1 antagonist	completely inhibited; also recorded: abolished
18	–	–	–	–	Dutch Aβ1-42: Dutch (E22Q) mutant Aβ1-42 peptide	–

— patent US7608586B2, “Soluble low-density lipoprotein receptor related protein binds directly to Alzheimer's amyloid-beta peptide” (The University of Rochester, priority 2003, dated 2009)
